According to publication PMC6997370, “Significant improvement in catalytic activity and enantioselectivity of a Phaseolus vulgaris epoxide hydrolase, PvEH3, towards ortho-cresyl glycidyl ether based on the semi-rational design” (Scientific Reports, 2020):

What was measured:
[1] = substrate: Cc1ccccc1OC[C@@H]1CO1; assay: initial hydrolysis rate by HPLC, non-linear regression; assay type: biochemical, Phaseolus vulgaris; details: pH 7.0 phosphate 100 mM, 20 °C, 5% methanol, 1.5-15 mM substrate
Source text: (§1) initial hydrolysis rate by HPLC, non-linear regression on PvEH3

[2] = substrate: Cc1ccccc1OC[C@H]1CO1; assay: as above; assay type: biochemical, Phaseolus vulgaris; details: pH 7.0 phosphate 100 mM, 20 °C, 5% methanol, 1.5-15 mM substrate
Source text: as §1

| Protein | Km [1] | Km [2] | kcat [2] |
| --- | --- | --- | --- |
| PvEH3 (Phaseolus vulgaris) (protein, pET-28a(+), N-terminal 6xHis tag, E. coli BL21(DE3), Ni-NTA purified; catalytic Asp101, Tyr150, Tyr232) MEGIQHKEVEVNGIKMHVAEKGEGPVVLFLHGFPELWYSWRHQILALSSRGYRAVAPDLRGYGDTEAPASMSSYSCFDIVGDLVALIDLLGVDQVFLVAHDWGAIIGWYLCMFRPDRVKAYVCLSVPLLHRNPEIRTVDAMRAMYGDDYYICRFQKPGEMEAQMAEVGTGYVLKNILTTRKPGPPIFPKGEYGTGFNPDMTNSLPSWLSQHDLAYYVSKFQKTGFTGPLNYYRNMNPNWELTAPWSGAKIKVPVKFITGDLDMVYTSLNMKEYIHGGGFKEDVPNLEEVIVQKGVAHFNNQEAAEEINTHIYDFINKF | 6.14 ± 0.22 mM | 9.84 ± 0.28 mM | 1.12 ± 0.05 s⁻¹ |
| PvEH3 (Phaseolus vulgaris; E134K/T137P) (protein, pET-28a(+), N-terminal 6xHis tag, E. coli BL21(DE3), Ni-NTA purified; catalytic Asp101, Tyr150, Tyr232) MEGIQHKEVEVNGIKMHVAEKGEGPVVLFLHGFPELWYSWRHQILALSSRGYRAVAPDLRGYGDTEAPASMSSYSCFDIVGDLVALIDLLGVDQVFLVAHDWGAIIGWYLCMFRPDRVKAYVCLSVPLLHRNPKIRPVDAMRAMYGDDYYICRFQKPGEMEAQMAEVGTGYVLKNILTTRKPGPPIFPKGEYGTGFNPDMTNSLPSWLSQHDLAYYVSKFQKTGFTGPLNYYRNMNPNWELTAPWSGAKIKVPVKFITGDLDMVYTSLNMKEYIHGGGFKEDVPNLEEVIVQKGVAHFNNQEAAEEINTHIYDFINKF | 3.29 ± 0.15 mM | 5.40 ± 0.21 mM | 1.37 ± 0.06 s⁻¹ |
